Laboratory results published in US20250026849A1 (ARCELLX, published 2025).

T1: P26 (human, UniProt P02771 381-609, limits assumed)
T1 construct: also called AFP p26
T1 sequence: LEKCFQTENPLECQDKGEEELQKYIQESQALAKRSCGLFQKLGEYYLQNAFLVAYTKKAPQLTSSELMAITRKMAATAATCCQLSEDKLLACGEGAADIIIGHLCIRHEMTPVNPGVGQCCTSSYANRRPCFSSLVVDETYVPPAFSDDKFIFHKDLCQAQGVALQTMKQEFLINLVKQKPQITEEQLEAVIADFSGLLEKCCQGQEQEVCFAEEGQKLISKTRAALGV


Target: T1, P26
Assay: ELISA, format not described
Design: unit not given here

ELISA_avg	Binder
29.5	D domain SEQ ID NO: 939 (designed binder) MGSWVLFKQELAWIKWLLEALGGSEAELAAFEEQIARFEHDLQKYKGKGNPEVEALRKEAAAIRDELQAYRHN
25.8	D domain SEQ ID NO: 941 (designed binder) MGSWFLFKSELAWIKWRLEALGGSEAELAYFEYQIAEFEFWLQSYKGKGNPEVEALRKEAAAIRDELQAYRHN
25.7	D domain SEQ ID NO: 942 (designed binder) MGSWLLFKSELAWIKWYLEALGGSEAELAEFEWNIAEFEKNLQKYKGKGNPEVEALRKEAAAIRDELQAYRHN
33.3	D domain SEQ ID NO: 943 (designed binder) MGSWLLFKSDLAWIKWRLEALGGSEAELAEFEESIAMFEHWLQEYKGKGNPEVEALRKEAAAIRDELQAYRHN
21.2	D domain SEQ ID NO: 944 (designed binder) MGSWLYFKSDLAWIKWRLEALGGSEAELADFEEAIAEFEQALQIYKGKGNPEVEALRKEAAAIRDELQAYRHN
22.5	D domain SEQ ID NO: 940 (designed binder) MGSWVLFKQELAWIKWYLEALGGSEAELAAFEWEIAAFEQRLQIYKGKGNPEVEALRKEAAAIRDELQAYRHN
18.6	D domain SEQ ID NO: 957 (designed binder) MGSWWVFKKTLAEIKWTLEALGGSEAELAYFEAEIAFFEFILQQYKGKGNPEVEALRKEAAAIRDELQAYRHN
19.2	D domain SEQ ID NO: 934 (designed binder) MGSWENFKDTLAWIKEYLEALGGSEAELAGFEHRIAIFEHYLQYYKGKGNPEVEALRKEAAAIRDELQAYRHN
19.6	D domain SEQ ID NO: 936 (designed binder) MGSWSLFKHRLANIKVYLEALGGSEAELADFETFIAYFEKDLQEYKGKGNPEVEALRKEAAAIRDELQAYRHN
30.4	D domain SEQ ID NO: 965 (designed binder) MGSWTHFKEDLAHIKDRLEALGGSEAELAAFELDIAWFEFMLQYYKGKGNPEVEALRKEAAAIRDELQAYRHN
14.2	D domain SEQ ID NO: 964 (designed binder) MGSWFVFKEDLAGIKFILEALGGSEAELAMFETDIAWFEYMLQYYKGKGNPEVEALRKEAAAIRDELQAYRHN
31.5	D domain SEQ ID NO: 966 (designed binder) MGSWYYFKERLAAIKDRLEALGGSEAELAIFEADIAWFEFMLQYYKGKGNPEVEALRKEAAAIRDELQAYRHN
11.1	D domain SEQ ID NO: 959 (designed binder) MGSWVYFKHRLAEIKDQLEALGGSEAELAEFETDIAWFEWMLQYYKGKGNPEVEALRKEAAAIRDELQAYRHN
18.6	D domain SEQ ID NO: 963 (designed binder) MGSWLAFKEDLAHIKSILEALGGSEAELAEFEHDIAWFEYMLQYYKGKGNPEVEALRKEAAAIRDELQAYRHN
22.1	D domain SEQ ID NO: 958 (designed binder) MGSWVYFKDHLAEIKSQLEALGGSEAELALFEYDIAWFEFILQYYKGKGNPEVEALRKEAAAIRDELQAYRHN
31.5	D domain SEQ ID NO: 932 (designed binder) MGSWADFKWTLAYIKHRLEALGGSEAELAFFEMEIAYFEQSLQNYKGKGNPEVEALRKEAAAIRDELQAYRHN
21.5	D domain SEQ ID NO: 956 (designed binder) MGSWYWFKYELAEIKWHLEALGGSEAELAHFEHSIAVFESQLQQYKGKGNPEVEALRKEAAAIRDELQAYRHN
13.8	D domain SEQ ID NO: 935 (designed binder) MGSWVLFKDYLADIKHYLEALGGSEAELANFEHLIANFEGDLQTYKGKGNPEVEALRKEAAAIRDELQAYRHN
20.5	D domain SEQ ID NO: 954 (designed binder) MGSWVRFKTELAYIKESLEALGGSEAELAMFESEIAIFEHSLQTYKGKGNPEVEALRKEAAAIRDELQAYRHN
13.3	D domain SEQ ID NO: 930 (designed binder) MGSWLYFKYNLAVIKHWLEALGGSEAELAIFEMSIADFEYELQWYKGKGNPEVEALRKEAAAIRDELQAYRHN
11.4	D domain SEQ ID NO: 933 (designed binder) MGSWAYFKGQLAYIKSGLEALGGSEAELAYFELRIAYFEHWLQNYKGKGNPEVEALRKEAAAIRDELQAYRHN
20.2	D domain SEQ ID NO: 928 (designed binder) MGSWSIFKYHLADIKLLLEALGGSEAELAYFEFLIADFEFTLQDYKGKGNPEVEALRKEAAAIRDELQAYRHN

ELISA_avg	Binder
8.54	D domain SEQ ID NO: 926 (designed binder) MGSWGEFTVRLYAIDRRLDALGGSEAELAAFEKEIAAFESELQAYKGKGNPEVEELRRFAAIIRAFLQAYRHN
18.1	D domain SEQ ID NO: 937 (designed binder) MGSWEHFKVELAGIKAYLEALGGSEAELALFEWAIADFESILQDYKGKGNPEVEALRKEAAAIRDELQAYRHN
15.9	D domain SEQ ID NO: 938 (designed binder) MGSWIYFKDELAGIKKYLEALGGSEAELAMFEVAIADFEAILQKYKGKGNPEVEALRKEAAAIRDELQAYRHN
8	D domain SEQ ID NO: 929 (designed binder) MGSWHHFKYFLADIKSILEALGGSEAELAIFEVQIAYFEDLLQSYKGKGNPEVEALRKEAAAIRDELQAYRHN
23.4	D domain SEQ ID NO: 945 (designed binder) MGSWKLFKYELAWIKWRLEALGGSEAELADFEASIAQFEKYLQTYKGKGNPEVEALRKEAAAIRDELQAYRHN
31.1	D domain SEQ ID NO: 946 (designed binder) MGSWYLFKNELAWIKWRLEALGGSEAELADFEMVIAMFEDHLQEYKGKGNPEVEALRKEAAAIRDELQAYRHN
13.7	D domain SEQ ID NO: 931 (designed binder) MGSWFYFKYELAWIKHWLEALGGSEAELASFETHIAFFEHQLQYYKGKGNPEVEALRKEAAAIRDELQAYRHN
15.2	D domain SEQ ID NO: 922 (designed binder) MGSWFEFSNRLYAIWHRLTALGGSEAELAAFEKEIAAFESELQAYKGKGNPEVESLRTQAAFIRILLQAYRHN
10.9	D domain SEQ ID NO: 924 (designed binder) MGSWFEFEDRLFAIWTRLEALGGSEAELAAFEKEIAAFESELQAYKGKGNPEVESLRQSAASIRWLLQAYRHN
19	D domain SEQ ID NO: 923 (designed binder) MGSWFEFSDRLYAIWERLDALGGSEAELAAFEKEIAAFESELQAYKGKGNPEVESLRFQAAFIRYQLQAYRHN
8.21	D domain SEQ ID NO: 925 (designed binder) MGSWHEFSERLFAIWTRLEALGGSEAELAAFEKEIAAFESELQAYKGKGNPEVEALRQSAAFIRVMLQAYRHN
30.1	D domain SEQ ID NO: 951 (designed binder) MGSWYFFKSRLAYIKVYLEALGGSEAELAGFEWEIAHFEEWLQRYKGKGNPEVEALRKEAAAIRDELQAYRHN
29.6	D domain SEQ ID NO: 952 (designed binder) MGSWYIFKSELAWIKWYLEALGGSEAELANFEVEIATFETWLQGYKGKGNPEVEALRKEAAAIRDELQAYRHN
20.1	D domain SEQ ID NO: 955 (designed binder) MGSWYLFKTELAAIKYRLEALGGSEAELASFEYEIAWFEHILQFYKGKGNPEVEALRKEAAAIRDELQAYRHN
22.9	D domain SEQ ID NO: 921 (designed binder) MGSWHEFYDRLYAIWDRLDALGGSEAELAAFEKEIAAFESELQAYKGKGNPEVEGLRNAAAVIRIFLQAYRHN
19.4	D domain SEQ ID NO: 953 (designed binder) MGSWYIFKQELASIKLSLEALGGSEAELAHFEAEIAWFEWWLQWYKGKGNPEVEALRKEAAAIRDELQAYRHN
12.1	D domain SEQ ID NO: 949 (designed binder) MGSWTLFKWDLAFIKWQLEALGGSEAELAWFEYEIAAFEDSLQNYKGKGNPEVEALRKEAAAIRDELQAYRHN
23.3	D domain SEQ ID NO: 950 (designed binder) MGSWILFKEDLAFIKWQLEALGGSEAELAWFETTIANFESDLQKYKGKGNPEVEALRKEAAAIRDELQAYRHN
20.8	D domain SEQ ID NO: 947 (designed binder) MGSWVYFKAHLAFIKWELEALGGSEAELANFESTIAEFEKYLQVYKGKGNPEVEALRKEAAAIRDELQAYRHN
19.8	D domain SEQ ID NO: 948 (designed binder) MGSWMYFKSHLAWIKWELEALGGSEAELAFFEDNIAQFEYWLQLYKGKGNPEVEALRKEAAAIRDELQAYRHN
20.1	D domain SEQ ID NO: 927 (designed binder) MGSWYEFDHRLMAISFRLVALGGSEAELAAFEKEIAAFESELQAYKGKGNPEVETLRRRAANIRHLLQAYRHN
